In the Human Domainome abundance scans (Beltran et al. 2025):
± gives the uncertainty stated by the source.

B1: Nucleolar transcription factor 1, residues 408 to 469; numbered along this chain, P17480 (parent)
chain: KRPVSAMFIFSEEKRRQLQEERPELSESELTRLLARMWNDLSEKKKAKYKAREAALKAQSER
B2: Zinc finger homeobox protein 4, residues 2562 to 2617; numbered along this chain, Q86UP3 (parent)
chain: RLRTTITPEQLEILYEKYLLDSNPTRKMLDHIAREVGLKKRVVQVWFQNTRARERK

Variants of: B1
Assay: abundance fitness (aPCA) (normalised: wild type 0, dead -1); higher = more abundant; growth selection in yeast, the domain comes from the species named
Settings: Homo sapiens

In order of rising abundance fitness:
1. KRPVSAMFIFSEEKRRQLQEERPELSESELTRLLARMWNDLSEKKKAKYKAREAALKAQSEF  -0.317 ± 0.34
2. KRPVSAMFIFSEEKRRQLQEERPELSESELTRLLARMWNDLSEKKKAKYKAREAALKAQSRR  -0.236 ± 0.13
3. KRPVSAMFIFSEEKRRQLQEERPELSESELTRLLARMWNDLSEKKKAKYKAREAALKAQSEP  -0.232 ± 0.081
4. KRPVSAMFIFSEEKRRQLQEERPELSESELTRLLARMWNDLSEKKKAKYKAREAALKAQSEN  -0.224 ± 0.12
5. KRPVSAMFIFSEEKRRQLQEERPELSESELTRLLARMWNDLSEKKKAKYKAREAALKAQSYR  -0.191 ± 0.2
6. KRPVSAMFIFSEEKRRQLQEERPELSESELTRLLARMWNDLSEKKKAKYKAREAALKAQSWR  -0.135 ± 0.071
7. KRPVSAMFIFSEEKRRQLQEERPELSESELTRLLARMWNDLSEKKKAKYKAREAALKAQSFR  -0.129 ± 0.12
8. KRPVSAMFIFSEEKRRQLQEERPELSESELTRLLARMWNDLSEKKKAKYKAREAALKAQSEL  -0.094 ± 0.069
9. KRPVSAMFIFSEEKRRQLQEERPELSESELTRLLARMWNDLSEKKKAKYKAREAALKAQSKR  -0.093 ± 0.097
10. KRPVSAMFIFSEEKRRQLQEERPELSESELTRLLARMWNDLSEKKKAKYKAREAALKAQSCR  -0.073 ± 0.13
11. KRPVSAMFIFSEEKRRQLQEERPELSESELTRLLARMWNDLSEKKKAKYKAREAALKAQSGR  -0.071 ± 0.046
12. KRPVSAMFIFSEEKRRQLQEERPELSESELTRLLARMWNDLSEKKKAKYKAREAALKAQSDR  -0.069 ± 0.11
13. KRPVSAMFIFSEEKRRQLQEERPELSESELTRLLARMWNDLSEKKKAKYKAREAALKAQSVR  -0.069 ± 0.045
14. KRPVSAMFIFSEEKRRQLQEERPELSESELTRLLARMWNDLSEKKKAKYKAREAALKAQNER  -0.06 ± 0.11
15. KRPVSAMFIFSEEKRRQLQEERPELSESELTRLLARMWNDLSEKKKAKYKAREAALKAQRER  -0.059 ± 0.037
16. KRPVSAMFIFSEEKRRQLQEERPELSESELTRLLARMWNDLSEKKKAKYKAREAALKAQSAR  -0.059 ± 0.064
17. KRPVSAMFIFSEEKRRQLQEERPELSESELTRLLARMWNDLSEKKKAKYKAREAALKAQSEI  -0.055 ± 0.16
18. KRPVSAMFIFSEEKRRQLQEERPELSESELTRLLARMWNDLSEKKKAKYKAREAALKAQSET  -0.051 ± 0.09
19. KRPVSAMFIFSEEKRRQLQEERPELSESELTRLLARMWNDLSEKKKAKYKAREAALKAQWER  -0.049 ± 0.077
20. KRPVSAMFIFSEEKRRQLQEERPELSESELTRLLARMWNDLSEKKKAKYKAREAALKAQSSR  -0.045 ± 0.052
21. KRPVSAMFIFSEEKRRQLQEERPELSESELTRLLARMWNDLSEKKKAKYKAREAALKAQVER  -0.038 ± 0.059
22. KRPVSAMFIFSEEKRRQLQEERPELSESELTRLLARMWNDLSEKKKAKYKAREAALKAQTER  -0.037 ± 0.066
23. KRPVSAMFIFSEEKRRQLQEERPELSESELTRLLARMWNDLSEKKKAKYKAREAALKAQQER  -0.036 ± 0.065
24. KRPVSAMFIFSEEKRRQLQEERPELSESELTRLLARMWNDLSEKKKAKYKAREAALKAQSEM  -0.019 ± 0.1
25. KRPVSAMFIFSEEKRRQLQEERPELSESELTRLLARMWNDLSEKKKAKYKAREAALKAQSES  -0.019 ± 0.066
26. KRPVSAMFIFSEEKRRQLQEERPELSESELTRLLARMWNDLSEKKKAKYKAREAALKAQPER  -0.006 ± 0.056
27. KRPVSAMFIFSEEKRRQLQEERPELSESELTRLLARMWNDLSEKKKAKYKAREAALKAQSTR  0.003 ± 0.077
28. KRPVSAMFIFSEEKRRQLQEERPELSESELTRLLARMWNDLSEKKKAKYKAREAALKAQSEQ  0.004 ± 0.1
29. KRPVSAMFIFSEEKRRQLQEERPELSESELTRLLARMWNDLSEKKKAKYKAREAALKAQSEW  0.014 ± 0.11
30. KRPVSAMFIFSEEKRRQLQEERPELSESELTRLLARMWNDLSEKKKAKYKAREAALKAQSEY  0.016 ± 0.12
31. KRPVSAMFIFSEEKRRQLQEERPELSESELTRLLARMWNDLSEKKKAKYKAREAALKAQSMR  0.023 ± 0.11
32. KRPVSAMFIFSEEKRRQLQEERPELSESELTRLLARMWNDLSEKKKAKYKAREAALKAQSEE  0.027 ± 0.19
33. KRPVSAMFIFSEEKRRQLQEERPELSESELTRLLARMWNDLSEKKKAKYKAREAALKAQSEK  0.042 ± 0.1
34. KRPVSAMFIFSEEKRRQLQEERPELSESELTRLLARMWNDLSEKKKAKYKAREAALKAQSEG  0.055 ± 0.033
35. KRPVSAMFIFSEEKRRQLQEERPELSESELTRLLARMWNDLSEKKKAKYKAREAALKAQSED  0.073 ± 0.15
36. KRPVSAMFIFSEEKRRQLQEERPELSESELTRLLARMWNDLSEKKKAKYKAREAALKAQSEA  0.079 ± 0.18

Variants of: B2
Assay: as above
Settings: Homo sapiens

In order of falling abundance fitness:
1. ALRTTITPEQLEILYEKYLLDSNPTRKMLDHIAREVGLKKRVVQVWFQNTRARERK  0.743 ± 0.28
2. SLRTTITPEQLEILYEKYLLDSNPTRKMLDHIAREVGLKKRVVQVWFQNTRARERK  0.311 ± 0.17
3. RDRTTITPEQLEILYEKYLLDSNPTRKMLDHIAREVGLKKRVVQVWFQNTRARERK  0.31 ± 0.13
4. CLRTTITPEQLEILYEKYLLDSNPTRKMLDHIAREVGLKKRVVQVWFQNTRARERK  0.24 ± 0.25
5. NLRTTITPEQLEILYEKYLLDSNPTRKMLDHIAREVGLKKRVVQVWFQNTRARERK  0.002 ± 0.29
6. TLRTTITPEQLEILYEKYLLDSNPTRKMLDHIAREVGLKKRVVQVWFQNTRARERK  -0.054 ± 0.27
7. RARTTITPEQLEILYEKYLLDSNPTRKMLDHIAREVGLKKRVVQVWFQNTRARERK  -0.059 ± 0.065
8. RCRTTITPEQLEILYEKYLLDSNPTRKMLDHIAREVGLKKRVVQVWFQNTRARERK  -0.296 ± 0.083
